Data from PMC11980582, “The human microbiome-derived antimicrobial lugdunin self-regulates its biosynthesis by a feed-forward mechanism”.

Assays:
[1] = tested on: T1, LugJ (Staphylococcus lugdunensis IVK28), ORF:22db99f4; test: EMSA; conditions: 10 mM Tris/HCl pH 7.4, 10 mM NaCl (LugJ) or 100 mM NaCl (LugR), 0.1 mg/mL BSA, 1 mM DTT, 1 mM EDTA, 10% glycerol, 30 min at 25 C, 20 ul; 5% native PAGE
T1 sequence: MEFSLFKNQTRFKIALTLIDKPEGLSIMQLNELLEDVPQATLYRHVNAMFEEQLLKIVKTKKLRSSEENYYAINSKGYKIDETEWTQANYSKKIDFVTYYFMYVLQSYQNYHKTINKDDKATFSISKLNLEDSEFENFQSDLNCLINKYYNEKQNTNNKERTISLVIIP

[2] = tested on: T1, LugJ (Staphylococcus lugdunensis IVK28), ORF:22db99f4; test: competition; conditions: 10 mM Tris/HCl pH 7.4, 10 mM NaCl (LugJ) or 100 mM NaCl (LugR), 0.1 mg/mL BSA, 1 mM DTT, 1 mM EDTA, 10% glycerol, 30 min at 25 C, 20 ul; 5% native PAGE
[3] = molecular target: T2, LugR (Staphylococcus lugdunensis IVK28, UniProt A0A292DID1 1-196); test: competition; 2 uM LugR; 50 or 100 ng competitor vs PlugR; 10 mM Tris/HCl pH 7.4, 10 mM NaCl (LugJ) or 100 mM NaCl (LugR), 0.1 mg/mL BSA, 1 mM DTT, 1 mM EDTA, 10% glycerol, 30 min at 25 C, 20 ul; 5% native PAGE; conditions: protein: recombinant; tags: 8xHis (N-terminal, pET-28a derived); chain copies: 2; label: none; blunt
T2 sequence: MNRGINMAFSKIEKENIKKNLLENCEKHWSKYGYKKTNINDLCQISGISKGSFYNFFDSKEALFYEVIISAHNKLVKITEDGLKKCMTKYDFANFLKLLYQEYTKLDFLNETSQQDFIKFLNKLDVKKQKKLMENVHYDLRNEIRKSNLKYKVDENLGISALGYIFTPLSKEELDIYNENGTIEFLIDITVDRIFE

In the case of “ACATAACACCTCACTTTATACATAATAATTGATTTTTAAATAAATGTACAGTAACATTATCATTATCAATAATGATAATGGAGGGTGAAAATG (double strand) [PlugI promoter fragment]”, the binding [1] is reported as “binds”.

“ACATAACACCTCACTTTATACATAATAATTGATTTTTAAATAAATGTACAGTAACATTATCATTATCAATAATGATAATGGAGGGTGAAAATG (double strand) [cold PlugI]” was tested, and the binding [2] was “binds”.

B1: PallugR native (dsDNA)
DNA 1: GATAAAAGTGACTAGAAAAATTTATTTGGTCATAAATGAATAG
DNA 2: CTATTCATTTATGACCAAATAAATTTTTCTAGTCACTTTTATC
B1: binds [3].
